Source: the DeepSol protein solubility set

Test: soluble on expression in E. coli; label from the status in PepcDB or PDB records

| Sequence | soluble on expression in E. coli |
| --- | --- |
| MGHHHHHHSHMRFFHWFSKWRKLHRDQEYEVTWYISWSPCTKCTRDMATFLAEDPKVTLTIFVARLYYFWDPDYQEALRSLCQKRDGPRATMKIMNYDEFQHCWSKFVYSQRELFEPWNNLPKYYILLHIMLGEILR | not soluble |
| MGHHHHHHSHMRVFALQLESFKENLMQSLFNSIPKKSVIVLPEYVINPFFHHNMGLDVNEISDQSARAVEFLSQKCEELDLIVSAPVLLEEHSKIYKKIALISKESVKYYTQQRLIPYPHWDEESFFDNEKSAFKELLVFERDGLKFAPLFGFEAHFDEIWVQAKNQGVDVVLLSSVATFESNERWRLLCQMRAFCASCVVVRANRIGAYRQIIVEEDQKNEFLWKFYGDSFVALPNGAIEDSLEGKMGALNAQIDKNDIDEWAKLWHFRTIKEG | soluble |
| MGHHHHHHSHMSENELSAEDTAFLEKAFELAQEALDEDEVPVGCVFVVNGTEIGRGRNRVNETGDPTRHAEMVAVTEMWKEHGTGCEDLLKKSTLYVSLEPCIMCSSAMYQLGIRKMVYGAENPRFGGVRSVGSAEKYRMEDNVQIVAGIWSERSVAMLKTFYEKLNPFAPPEKRKTKKPKLDEIK | not soluble |
| MGHHHHHHSHMSHGHSHGGGGCRCAAEREEPPEQRGLAYGLYLRIDLERLQCLNESREGSGRGVFKPWEERTDRSKFVESDADEELLFNIPFTGNVKLKGIIIMGEDDDSHPSEMRLYKNIPQMSFDDTEREPDQTFSLNRDLTGELEYATKISRFSNVYHLSIHISKNFGADTTKVFYIGLRGEWTELRRHEVTICNYEASANPADHRVHQVTPQTHFIS | not soluble |
| MGHHHHHHSHMSSMQRRAFVALGLMAMLAACSPAKKEDAAAGQTPIKLATDWRAQAELGGYYQALATGEYKKRGLDVTLIQGGPAVNVPQLLATGAVDVGVGSNSFIIMNLAKENAPVKAVAAFMQKDPQVLIAHPDQGINGIADMKGRPILLSDASVTAFWVWLKAKYGFTDDQVRKYNYSSAPFLADKRVVQQGYATSEPYLIEKEGKIKPAVFLLADSGYPAYASFALVPDSLIAKNPAAVQAFVEATAAGWTSYLYGDPKPGDAAILKDNPEMTQDVLDQAREKMRSYGIVSANGGRGDIGQMTDARWAEFFKVASEQGVYPADMDYKKAYTLQFLPKGP | not soluble |
| MGHHHHHHSHMTDPSKLAVAVVCSSNMNRSMEAHNFLAKKGFNVRSYGTGERVKLPGMAFDKPNVYEFGTKYEDIYRDLESKDKEFYTQNGLLHMLDRNRRIKKCPERFQDTKEQFDIIVTVEERVYDLVVMHMESMESVDNRPVHVLNVDVVDNAEDALMGAFVITDMINMMAKSTDLDNDIDELIQEFEERRKRVILHSVLFY | soluble |
| MGHHHHHHSHMVKDIIIASFYKFIPLNDFESLREPILTKMHEIGIKGTIILAHEGVNGGFAGNREQMNVFYDYLRSDSRFADLHFKETYDNKNPFDKAKVKLRKEIVTMGVQKVDPSYNAGTYLSPEEWHQFIQDPNVILLDTRNDYEYELGTFKNAINPDIENFREFPDYVQRNLIDKKDKKIAMFCTGGIRCEKTTAYMKELGFEHVYQLHDGILNYLESIPESESLWEGKCFVFDDRVAVDQKLDRVYPQLPQDYKYEREQK | soluble |
| MGHHHHHHSHMYSEIQRERADIGGLMARPEYREWNPELIKPKKLLNPVKASRSHQELHRELLMNHRRGLGVDSKPELQRVLEHRRRNQLIKKKKEELEAKRLQCPFEQELLRRQQRLNQLEKPPEKEEDHAPEFIKVRENLRRIATLTSEEREL | not soluble |
| MGHHHHHHSHNFHYGAGHPMKPHRLALTHSLVLHYGLYKKMIVFKPYQASQHDMCRFHSEDYIDFLQRVSPTNMQGFTKSLNAFNVGDDCPVFPGLFEFCSRYTGASLQGATQLNNKICDIAINWAGGLHHAKKFEASGFCYVNDIVIGILELLKYHPRVLYIDIDIHHGDGVQEAFYLTDRVMTVSFHKYGNYFFPGTGDMYEVGAESGRYYCLNVPLRDGIDDQSYKHLFQPVINQVVDFYQPTCIVLQCGADSLGCDRLGCFNLSIRGHGECVEYVKSFNIPLLVLGGGGYTVRNVARCWTYETSLLVEEAISEELPYSEYFEYFAPDFTLHPDVSTRIENQNSRQYLDQIRQTIFENLKMLNHAPSVQIHDVPADLLTYDRTD | not soluble |
| MGHHHHHHSHPPTAPDRATAVATASRLGPYVLLEPEEGGRAYQALHCPTGTEYTCKVYPVQEALAVLEPYARLPPHKHVARPTEVLAGTQLLYAFFTRTHGDMHSLVRSRHRIPEPEAAVLFRQMATALAHCHQHGLVLRDLKLCRFVFADRERKKLVLENLEDSCVLTGPDDSLWDKHACPAYVGPEILSSRASYSGKAADVWSLGVALFTMLAGHYPFQDSEPVLLFGKIRRGAYALPAGLSAPARCLVRCLLRREPAERLTATGILLHPWLRQDPMPLAPTRSHLWEAAQVVPDGLGLDEARE | not soluble |
| MGHHHHHHSHSKKPYIVTIACTKGGSAKSTNAANIGAFCADHGLRTLLIDTDTQPTLSSYYSLAKTAPGGIYEFLLQRDVEPSHIVSQTSIKNLDLIQSNDPSNNVSHMLRNAPDGSIRFSHLIKSINNYDVIVIDTRGTRDITVDMSVLAADILFCPILPQILSAKEFIRGTIGMYQDLQTFESFGFKLPPLKAIANGVDNTNDVKFVMQKLHTLFANTFDESKTLLDFSIPYHVAYREAVTYALPVYRHSAVEYPVMQQLCC | not soluble |
| MGHVDREDLLNVIRHELRLEDDDGPGLCSRLLLNPDRKCRAGGLPLDFRLKNGDLMDDGDAGFDDIYEIPLYEEPIHTRTLINDSLALRTAEKIKEEGRRDNFYTGPLDELFVKQEVNWPPKTPISTEKSAIERYLEENSANLNNPLGEYSKFAATTTDPSRQIEIIIPMSCDEEIGFKTLKIEVLTTARIREVIGYCLLQYYLTFDSYLPGEVDDYQFYLAEEDGEIEHELPPLDSSKLVGQVGFTCLGLVSRIKKNGNSRQKRAVAVWFVDKDQYVIEVDNMEKPLRWLRDEAFRLREETVKEREPLFQGLLDIKEYYMEAVDNFDVKLDLEASISSARSLEFVMIRKNSSRAGFHPRGGRYGRQMSAMLTLKMPNSPIAAGPMTPLPTVMEESPAVAGTSNGFGFPKAESCGAIASTPGVTWNDDGGQLSSFIVQRIHKFKPKWKANLSTVV | not soluble |
| MGIPSDFSNTGLTGFNVSSTKLVKIEQQYKGVKGKKFISPGGGKFVRIDDPGAVDSNGLRTADASNTSISLETGNTWLPRLHADGTLTCGGKCAWLECTNVTIPKNKRLWFRYAFLRFSSLPADSFSVLLCFPNDDTSVPPLPPYWICSVKELQENRGNINQTDWTECFVEIDKNADFHGTLRWVVATGHNLADQNSIPDNTRFTRPGCLLIDAIDIR | not soluble |
| MGKALIIGCGGVASVAVHKCVQNSEVFEEICIASRTKSKCDALKAKLDGGKTKITTAQVDANNVDELIALIEEVKPDVVMNLALPYQDLTIMDACLATKTNYLDTANYEPEDTAKFEYKWQWDYRERFEKAGITALLGSGFDPGVTGVFSAYALKHHFDEIEYIDILDCNAGDHGYPFATNFNPEINIREVSANGRYWENGEWVETNPMEIKRVYNFPEVGEKDMYLLYHEELESLAVNIPGIKRIRFFMTFSESYLTHLKCLENVGMTSIEPIEFEGKEIIPLQFLKAVLPDPASLGPRTKGKTNIGCIFKGKKDGKDKTYYLYNVCDHEECYKEVGSQAVSYTTGVPAMIGAMMLMTGKWNKPGVYNIEEFDPDPFMEALNKWGLPWKEDHNPQLVDSDPIKETELVR | not soluble |
| MGKEYVVIGLGRFGGSIVRELNALDMDVMAIDHDENRVNEYSDIATHAVVADTTDEAVMKSLGIRNFDHVIVAIGENIQSSTLTTLILKELGVKKVTAKAQNDYHAKILNKIGADTVVHPERDMGRRIAHNVASASVLDYLELADEHSIVELKATEKMAGQSIIDLDIRAQYGINIIAIKRGKEFIISPNPNINLEIGDILIMIGHDNDLNRFEKNIATR | not soluble |
| MGKFSNQKKNRVKNKVAVTVKKAQRMKADAKNAKKDGEVDVEMKEEVVRVRGLAVSSLKKLASGELQNVPKVNEKKIIRKTELPVRENKKILDAPTGKRGTTAQYITKKKAKKMYKKMTHDARDKYRKIQAELAGDGEDDEEGEAEVMEQ | not soluble |
| MGKLNLYQMKKVEIIVRGEDLDFVLDLLEKAGVKGYTIIHNLSGKGSHGFHEGHLLFNEEDVLDMVISVMPEEKVEAILEGLTPFFNKHSGVVFVSDVQVSRLEKFKNG | not soluble |
| MGKLVEGVWHDVWYDTKANGGKFVREDAGFRDWIKNDSEAVFQPESGRYHLYVSLACPWAHRTLIFRKLKGLEPHIDVTVVCPDMLSQGWQMGLPEPLFGHTRMHQIYTQAKPDYTGRVTVPVLWDKKTNTIVSNESSEIIRMFNSAFNDLTGNHDDYYPEPLRGVIDEWNDYIYPNVNNGVYRCGFATSQEAYEEAFESLFSALDKIDAHLATHRYLAGNKITEADWRLFTTLVRFDAVYVGHFKCNKQRIADYVNIQGYLKELYQIDGIADTTDFYHVKRHYYFSHTGINPTQVVPKGPDLDFSSPHQREMIG | soluble |
| MGKQLESRTIPPYEPKAGEEYMSPEQLAHFRKILEYQRAELSMEIDRAVHVMQEESTIFADPADRATQESDMALELRSRDRERKLIKKIDEIFTKIDSGEYGYCEKCGIEIGLKRLEARPTASLCIDCKTLDEIRERQMAK | not soluble |
| MGKSELSGRLNWQALAGLKASGAEQNLYNVFNAVFEGTKYVLYEKPKHLKNLYAQVVLPDDVIKEIFNPLIDLSTTQWGVSPAFAIENTETHKILFGEIKRQDGWVEGKDPSAGRGNAHERSCKLFTPGLLKAYRTIGGINDEEILPFWVVFEGDITRDPKRVREITFWYDHYQDNYFMWRPNESGEKLVQHFNEKLKKYLD | soluble |
| MGKSSKPIQTTQNTTQTNAPPEWAKGIFERAAKDAMSFYNQGSGKAVYDGQRVAGLSDQTKNAINGLSNNTHNYDNNYLNGLATGQNSTSQNLKNMASGHEIGNNPYFKEALQNTLNKASDTINSSLAGAGRYGSGAHTGVLADELGSIATQALSQQYNQDVNNMMQANGMIDQANQNQLASANNFFQGQGQANLNALSGGGLLDANHQQQLDEERQKWEQQNNLDWDQLSKLLAAGTASAGNYGMQTEQRTQFTPQTKLNPWQTIGNVGTILGTFAGLSDRRAKENIREAGQKKGYTLYEYNYKGSPERYRGVMAQDVLRSNPEAVFYNNTTGLLHVDYDKLGFNMERVQ | not soluble |
| MGKVTGFLEIERHDRVYAPVTDRVKNYNEFVVPLSEKDLRDQAARCMNCGIPYCHGTGSAQPGATGCPVNNQIPDWNDLVYNGYWQEAARTLHSTNNFPEFTGRICPAPCEASCTLNIDDNPVTIKTIECAIVDTAFDNGWVTPEIAAVKTGQSVAVVGAGPAGLACAQQLARAGHDVHVYEKFAKAGGLLRYGIPDFKMEKTLIDRRVAQMEAEGVTFHYGAPVGGSAPGAVDPAELLKQYDAVALTGGAEAPRDLPIPGRELGGIHFAMDFLTQQNRRVSGEAVNGTDILAAGKNVVVIGGGDTGSDCIGTSIRQGAKSVTQIEIMPAPPERENKALTWPNWPMKMRTSSSQAEGAAREFAVMTQSFEGEGGVVKKLNCVRVDAKFQPIPGTEFTLEADLVLLAMGFVSPVKEGLLTQLGVALDPRGNVAADLSHFTTSVDKVFAAGDMRRGQSLVVWAIREGRLCAQAIDRFLMGATTLPRLEHHHHHH | not soluble |
| MGLADDAPLGYLLYRVGAVLRPEVSAALSPLGLTLPEFVCLRMLSQSPGLSSAELARHASVTPQAMNTVLRKLEDAGAVARPASVSSGRSLPATLTARGRALAKRAEAVVRAADARVLARLTAPQQREFKRMLEKLGSD | not soluble |
